From article PMC3541406, “Solution Structure of an Archaeal DNA Binding Protein with an Eukaryotic Zinc Finger Fold”

T1: AFV1p06 (ORF59a) (Acidianus filamentous virus 1? (AFV1, …, UniProt Q70LE5 1-59))
T1 sequence: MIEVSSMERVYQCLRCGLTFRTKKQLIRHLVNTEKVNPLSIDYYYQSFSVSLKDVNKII


What was measured:
Settings in all cases: protein: recombinant; tags: none; blunt
AFV1p06 (ORF59a) [1] = target: T1, AFV1p06 (ORF59a); assay: EMSA; 10 uM ZnCl2, 50 ng/uL salmon sperm DNA, 75 nM probe, 0-2 uM protein; 50 mM HEPES pH 7.4, 10 uM ZnCl2, 150 mM NaCl, 5% glycerol, 0.02% Tween, 3 mM DTT, 50 ng/uL salmon sperm DNA, 15 min at 48 C; 6% native PAGE in TBE
AFV1p06 (ORF59a) [2] = target: T1, AFV1p06 (ORF59a); assay: competition; vs labelled dsATcomb 75 nM, 0.5 uM protein; 50 mM HEPES pH 7.4, 10 uM ZnCl2, 150 mM NaCl, 5% glycerol, 0.02% Tween, 3 mM DTT, 50 ng/uL salmon sperm DNA, 15 min at 48 C; 6% native PAGE in TBE
AFV1p06 (ORF59a) [3] = target: T1, AFV1p06 (ORF59a); assay: competition; vs labelled dsGCcomb 75 nM, 0.5 uM protein; 50 mM HEPES pH 7.4, 10 uM ZnCl2, 150 mM NaCl, 5% glycerol, 0.02% Tween, 3 mM DTT, 50 ng/uL salmon sperm DNA, 15 min at 48 C; 6% native PAGE in TBE

| Binder | binding signal (AFV1p06 (ORF59a) [1]) | binding signal (AFV1p06 (ORF59a) [2]) | binding signal (AFV1p06 (ORF59a) [3]) |
| --- | --- | --- | --- |
| dsGCcomb (dsDNA) DNA 1: AGGGTGGCAGCGTCGGAGCCTCGCA DNA 2: TGCGAGGCTCCGACGCTGCCACCCT | ≥ 2 fold more efficient than dsATcomb | ~0.5 molar ratio of cold dsGCcomb to hot dsATcomb giving clear signal decrease |  |
| dsATcomb (dsDNA) DNA 1: AATGATTCTAAGTATCTTAGAAACA DNA 2: TGTTTCTAAGATACTTAGAATCATT |  |  | ~5 molar ratio of cold dsATcomb to hot dsGCcomb for similar displacement |
